In US20210238302A1, “HIGH AFFINITY MONOCLONAL ANTIBODIES (MABS) AGAINST CELL SURFACE EXPRESSED HUMAN CARBONIC ANHYDRASE IX (HCA-IX), AND USES THEREOF” (NATIONAL RESEARCH COUNCIL OF CANADA, priority 2018, published 2021):
Several values for one entry are separate records, joined by “and”; a condition that tells them apart may be missing. Equal entries are not always repeated. Entries after “also recorded” stand apart in the source; their conditions may differ. Where two headings read alike, the source gives them in different places.

Key:
SK-RC-52 cells = assay: Internalization of pHAb dye labeled mAbs; type: cell-based, human; conditions: antibody-pHAb dye conjugates, 37° C., 24 h
Excerpt: In addition, we also evaluated the internalization potential of these mAbs with the thought of using these enzyme-inhibiting mAbs to bring a toxic pay-load into cancer cells. For this, both mAbs, in addition to a negative control IgG, were labeled with a pH sensitive reactive dye (pHAb; Promega). Upon receptor-mediated internalization, these antibody-pHAb Dye conjugates traffick to the endosome and lysosomal vesicles where pH is acidic, causing the pHAb dye to fluoresce. CA-IX expressing SK-RC-52 expressing cells were incubated with these antibody-pHAb dye conjugates (10 μg/mL) and incubated at 37° C. (5% CO2, humidified environment) for 24 h (FIG. 18A) or coated with various concentrations of the conjugates for 30 min at 4° C., washed, and then transferred to 37° C. (5% CO2, humidified environment) for 24 h (FIG. 18B).

rhCA-IV = rhCA-IV (Homo sapiens, UniProt P22748); assay: Cross-reactivity determination by SPR; type: binding
Excerpt: (§1) hCA-IX is one of several hCAs that have been identified to date (see FIG. 1). […] In contrast to hCA-IX the expression pattern of hCA-XII is much more widespread and not as cancer specific as hCA-IX.

rhCA-XIV = rhCA-XIV (Homo sapiens, UniProt Q9ULX7); assay: Cross-reactivity determination by SPR; type: binding
Excerpt: as §1

rhCA-XII = rhCA-XII (Homo sapiens, UniProt O43570); assay: Cross-reactivity determination by SPR; type: binding
Excerpt: as §1

Cell viability = type: cell-based
rhCA-IX ECD [1] = molecular target: T1, rhCA-IX ECD (Homo sapiens, UniProt Q16790); type: biochemical
Excerpt: To determine whether these mAbs can inhibit the enzyme activity of the rhCA-IX ECD protein, we used an activity assay in which 4-Nitrophenyl acetate (4-NPA) is used as a substrate. […]

rhCA-IX ECD [2] = molecular target: T1, rhCA-IX ECD; assay: Western blot of non-purified mAbs on purified CA-IX ECD antigen; type: binding; conditions: undiluted CM; non-reducing and reducing conditions
Excerpt: Anti-hCA-IX mAb 10F2 is shown as a positive control.

rmCA-IX = rmCA-IX (Mus musculus, UniProt Q8VHB5); assay: Cross-reactivity determination by SPR; type: binding, murine
Excerpt: as §1

[3] = molecular target: T2, low hCA-IX expressing SK-RC-59 cells (Homo sapiens, UniProt Q16790); assay: Flow cytometry binding, SK-RC-59 cells; type: cell-based; conditions: SK-RC-59 (low hCA-IX)
T2 construct: the non-transfected human renal tumor SK-RC-59 and SK-RC-52 cell lines; endogenous in cells; host or cells: SK-RC-52 (high hCA-IX), SK-RC-59 (low hCA-IX)
Description: These cell lines have been used in the literature for the screening of scFv Abs for binding to hCA-IX (Xu et al., 2011). Western blot analysis of these cell lines under reducing and non-reducing conditions (FIG. 8) confirmed the expression of hCA-IX in the SK-RC-52 cell line (indicated with a star), whereas no hCA-IX could be detected in the SK-RC-59 cell line. Equal protein quantities were loaded (BCA protein assay) which was confirmed by an actin blot.
Flow cytometry: mAbs were evaluated in a flow cytometry experiment using the SK-RC-59 and SK-RC-52 cell lines. As controls a commercially available mAb (R&D, Clone #303123, Cat #MAB2188) and the M75 mAb (generously supplied by Dr E Oosterwijk, Radboud University Nijmegen, The Netherlands) were used. Experiments were plotted per cell line (FIG. 9) using a double Y-axis (left Y-axis, % live cells, closed squares; right Y-axis, mean fluorescence intensity of the live population, closed circles; X-axis, experimental groups).

[4] = molecular target: rhCA-IX ECD monomer or dimer (Homo sapiens, UniProt Q16790)
[5] = Differential Scanning Calorimetry (DSC) thermostability; type: physicochemical; conditions: DSC 25° C. to 100° C., scan rate 90° C./hour; versus Cetuximab
Description: (scan rate 90° C./hour). The therapeutic anti-EGFR Ab Cetuximab, which has been proven to be a very stable under these conditions, was used as control.

rhCA-IX ECD Monomer = rhCA-IX ECD Monomer (Homo sapiens, UniProt Q16790)
Description: (§2) SPR experiments were carried out by capturing the CA-IX mAbs from the CM with an anti-mouse Fc antibody immobilized on the chip surface, after which rhCA-IX EDC mixture, or rhCA-IX EDC monomer or dimer were flowed over the mAb surface.

rhCA-IX ECD Dimer = rhCA-IX ECD Dimer (Homo sapiens, UniProt Q16790)
Description: as §2

rhCA-IX ECD [6] = molecular target: T1, rhCA-IX ECD; assay: Reverse Phase Protein Array (RPPA); type: binding
[7] = hybridoma-derived mAb, 1 μM rhCA-IX ECD dimer, mAb:rhCA-IX ECD 4:1
[8] = recombinant mAbs, rhCA-IX ECD monomer
[9] = hybridoma-derived mAb, rhCA-IX ECD dimer

rhCA-XII, sequence (O43570 25-354): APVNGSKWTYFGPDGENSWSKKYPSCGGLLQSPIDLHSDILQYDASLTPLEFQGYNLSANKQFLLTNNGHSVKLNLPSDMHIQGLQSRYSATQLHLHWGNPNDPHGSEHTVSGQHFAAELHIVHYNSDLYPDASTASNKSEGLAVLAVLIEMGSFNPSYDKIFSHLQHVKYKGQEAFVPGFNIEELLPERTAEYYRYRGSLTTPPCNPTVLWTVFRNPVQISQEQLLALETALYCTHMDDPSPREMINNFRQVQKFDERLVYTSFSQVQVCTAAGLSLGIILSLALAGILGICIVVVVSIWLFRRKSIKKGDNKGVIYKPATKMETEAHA
rhCA-XIV, sequence (Q9ULX7 16-337): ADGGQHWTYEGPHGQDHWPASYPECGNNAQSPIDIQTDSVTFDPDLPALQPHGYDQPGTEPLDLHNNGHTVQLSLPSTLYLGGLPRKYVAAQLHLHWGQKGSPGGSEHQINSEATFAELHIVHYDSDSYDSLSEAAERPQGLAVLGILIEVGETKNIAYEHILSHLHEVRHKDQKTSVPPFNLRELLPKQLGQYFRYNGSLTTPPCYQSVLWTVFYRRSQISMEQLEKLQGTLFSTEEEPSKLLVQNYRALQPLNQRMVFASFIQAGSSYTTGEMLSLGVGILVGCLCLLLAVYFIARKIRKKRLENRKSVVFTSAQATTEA
rhCA-IV, sequence (P22748 19-284): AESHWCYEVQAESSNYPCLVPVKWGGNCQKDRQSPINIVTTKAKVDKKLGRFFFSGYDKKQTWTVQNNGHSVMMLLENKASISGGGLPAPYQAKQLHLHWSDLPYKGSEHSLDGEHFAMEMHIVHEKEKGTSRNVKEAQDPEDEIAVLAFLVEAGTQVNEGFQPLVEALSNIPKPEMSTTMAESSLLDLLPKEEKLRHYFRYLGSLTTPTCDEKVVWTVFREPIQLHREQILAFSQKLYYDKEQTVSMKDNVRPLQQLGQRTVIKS
rmCA-IX, sequence (Q8VHB5 32-437): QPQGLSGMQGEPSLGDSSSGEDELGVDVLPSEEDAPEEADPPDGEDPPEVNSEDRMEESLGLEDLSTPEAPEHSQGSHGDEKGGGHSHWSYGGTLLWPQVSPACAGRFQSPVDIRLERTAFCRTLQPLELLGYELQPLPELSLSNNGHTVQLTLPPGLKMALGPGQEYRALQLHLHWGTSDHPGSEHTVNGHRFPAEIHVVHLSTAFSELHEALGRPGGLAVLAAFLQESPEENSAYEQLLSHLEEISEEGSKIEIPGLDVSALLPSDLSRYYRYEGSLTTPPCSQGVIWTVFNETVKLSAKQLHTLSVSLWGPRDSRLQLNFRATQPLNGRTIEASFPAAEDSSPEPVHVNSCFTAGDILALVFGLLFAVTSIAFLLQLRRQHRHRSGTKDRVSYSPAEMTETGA

B1: 9B6: mouse IgG2b monoclonal antibody inhibiting hCA-IX catalytic activity; SEQ ID NO.14 and 18; hybridoma-derived and recombinant (SEQ ID NO. 24 and 25) (antibody, V domains shown)
VL: DIVLTQSPSSLAVSLGQRATISCKASQSVDYDGNSYMNWFQQKPGQPPKLLIYEASSLESGIPARISGSGSGTDFTLNIHPVEEEDAATYYCQQSYEGPYTFGGGTKLEIK
VH: QVQLQQPGAELVKPGASVKLSCKASGYIFTTKWINWVKQRPGQGLEWIGNIYPGSSNTYYNEKFKNKATLTVDKSSNTAHLQLSSLTSEDSAVYYCARGIANWGQGTPVTVSA
SK-RC-52 cells
  internalization: internalize in a CA-IX specific manner
rhCA-IV
  SPR binding (cross-reactivity): no interaction was detected
rhCA-XIV
  SPR binding (cross-reactivity): no interaction was detected
rhCA-XII
  SPR binding (cross-reactivity): no interaction was detected
Cell viability
  reduction of cell viability: active in reducing cell viability
rhCA-IX ECD [1]
  % rhCA-IX ECD Inhibition: 42.59%
rhCA-IX ECD [1]; [7]
  % rhCA-IX ECD Activity: 59.25%
  % rhCA-IX ECD Inhibition: 40% and 40.75%
rhCA-IX ECD [1]; hybridoma-derived mAb, mAb:rhCA-IX ECD 4:1
  Comments: Inhibition
rhCA-IX ECD [1]; recombinant mAbs and Fabs, 0.5 μM each, rhCA-IX ECD 0.5 μM dimer, 4-NPA
  rhCA-IX ECD enzyme activity inhibition: 40% and 28%
rhCA-IX ECD [1]; replicate 1 of % rhCA-IX ECD activity, hybridoma-derived mAb, mAb:rhCA-IX ECD 4:1
  Data1: 59.25
rhCA-IX ECD [1]; replicate 2 of % rhCA-IX ECD activity, hybridoma-derived mAb, mAb:rhCA-IX ECD 4:1
  Data2: 55.57
rhCA-IX ECD [2]
  Western blot binding to rhCA-IX ECD: do not detect rhCA-IX ECD; also recorded: failed to bind
rmCA-IX
  SPR binding (cross-reactivity): no interaction was detected
[3]
  binding to cell surface hCA-IX by flow cytometry: virtually no binding was detected
[4]; hybridoma-derived mAbs, rhCA-IX ECD monomer or dimer
  competition between 4A2 and 9B6 for binding: do not compete
[4]; [8]
  competition between 4A2 and 9B6 for binding: do not compete for binding to hCA-IX
  competition with cG250 for binding to hCA-IX: neither the 9B6 nor the 4A2 mAb competes with cG250
[5]
  thermostability: slightly less stable than Cetuximab
rhCA-IX ECD Monomer; Hybridoma-derived
  off rate: slow
rhCA-IX ECD Monomer; Recombinantly expressed, mIgG2b
  off rate: slow
rhCA-IX ECD Dimer; Hybridoma-derived, rhCA-IX ECD dimer
  off rate: extremely slow
rhCA-IX ECD Dimer; [9]
  ka: 1.33E+05
  kd: 4.17E−18
rhCA-IX ECD Dimer; recombinant and hybridoma-derived mAb, rhCA-IX ECD dimer (FIG. 12)
  binding kinetics: poor
rhCA-IX ECD [6]
  Antigen in protein mixture Denatured (D): 1.74
